This note sets out measurements from the supplement of paper PMC6757056.

± gives the standard deviation of the averaged measurements.

The chains are these.
B1: library; a variant is named by its letters at N, in order (parent)
chain: GCUGUCACCGAGAAACUGUGAAGUAUAUCUUAAACCUGGGCACUUAAAAGAUAUAUGGAGUUAGUAGUGCAACCUGCUCGGUCUGAUGAGUCCNNNNNNGGACGAAACAGC

Data set [1] covers variants of B1. Nature of the data set: normalized RNA/DNA level without ligand (relative to sTRSVctl = 100) (log10 (% of sTRSVctl)); HEK293T; ligand: cyclic di-GMP (c-di-GMP-II aptamer); higher = less ribozyme self-cleavage, higher mRNA level. As to conditions: reporter: mCherry (pCS4076), ligand present: no. Put shortly: (§1)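 RNA level was computed as RNA reads over DNA reads divided by a spiked-in non-cleaving sequence or by the top sequences, then scaled and log-transformed. Scaling was ×100 with log10, the top group was 25 sequences, and the threshold was ≥100 DNA reads. The reads came from HEK293T cells transfected at 4 µg per 6-well well with ribozyme switch library plasmids (mCherry, or eGFP in some ligand experiments). Total RNA was extracted with EDTA 72 h after transfection, with any ligand added 1 h before it.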

Variants of B1 are the subject of data set [2]. Nature of the data set: normalized RNA/DNA level with ligand (relative to sTRSVctl = 100) (log10 (% of sTRSVctl)); HEK293T; ligand: cyclic di-GMP (c-di-GMP-II aptamer); ligand concentration (+) RNA-Seq: 1 mM; higher = less ribozyme self-cleavage, higher mRNA level. Conditions: reporter: mCherry (pCS4076), ligand present: yes. In outline:
as §1

For GCUGUCACCGAGAAACUGUGAAGUAUAUCUUAAACCUGGGCACUUAAAAGAUAUAUGGAGUUAGUAGUGCAACCUGCUCGGUCUGAUGAGUCCGCAGUUGGACGAAACAGC [GCAGUU], the “normalized RNA/DNA level without ligand (log10)” value in data set [1] was determined as 1.45 ± 0.082. For the same variant, in data set [2], the “normalized RNA/DNA level with ligand (log10)” value stood at 1.65 ± 0.11.
For GCUGUCACCGAGAAACUGUGAAGUAUAUCUUAAACCUGGGCACUUAAAAGAUAUAUGGAGUUAGUAGUGCAACCUGCUCGGUCUGAUGAGUCCGCAGUGGGACGAAACAGC [GCAGUG], the “normalized RNA/DNA level without ligand (log10)” value in data set [1] came out at 1.736 ± 0.0028. In addition, the “normalized RNA/DNA level with ligand (log10)” value in data set [2] was 1.78 ± 0.11.
For the variant GCUGUCACCGAGAAACUGUGAAGUAUAUCUUAAACCUGGGCACUUAAAAGAUAUAUGGAGUUAGUAGUGCAACCUGCUCGGUCUGAUGAGUCCGCAGUCGGACGAAACAGC [GCAGUC], in data set [1], the “normalized RNA/DNA level without ligand (log10)” value is 1.31 ± 0.064. Moreover, in data set [2], the “normalized RNA/DNA level with ligand (log10)” value is 1.51 ± 0.1.
Consider GCUGUCACCGAGAAACUGUGAAGUAUAUCUUAAACCUGGGCACUUAAAAGAUAUAUGGAGUUAGUAGUGCAACCUGCUCGGUCUGAUGAGUCCCCAUCAGGACGAAACAGC [CCAUCA], for which the “normalized RNA/DNA level without ligand (log10)” value in data set [1] is 1.66 ± 0.052. Also, the “normalized RNA/DNA level with ligand (log10)” value in data set [2] turned out to be 1.77 ± 0.12.
The matching figures for GCUGUCACCGAGAAACUGUGAAGUAUAUCUUAAACCUGGGCACUUAAAAGAUAUAUGGAGUUAGUAGUGCAACCUGCUCGGUCUGAUGAGUCCCCAUCCGGACGAAACAGC [CCAUCC]: 1.81 ± 0.043 and 1.92 ± 0.092.
For GCUGUCACCGAGAAACUGUGAAGUAUAUCUUAAACCUGGGCACUUAAAAGAUAUAUGGAGUUAGUAGUGCAACCUGCUCGGUCUGAUGAGUCCCCAUCGGGACGAAACAGC [CCAUCG], in that order: 1.73 ± 0.088 and 1.84 ± 0.1.
For GCUGUCACCGAGAAACUGUGAAGUAUAUCUUAAACCUGGGCACUUAAAAGAUAUAUGGAGUUAGUAGUGCAACCUGCUCGGUCUGAUGAGUCCACAGUAGGACGAAACAGC [ACAGUA], in that order: 1.31 ± 0.048 and 1.51 ± 0.15.
For GCUGUCACCGAGAAACUGUGAAGUAUAUCUUAAACCUGGGCACUUAAAAGAUAUAUGGAGUUAGUAGUGCAACCUGCUCGGUCUGAUGAGUCCACAGUCGGACGAAACAGC [ACAGUC], the “normalized RNA/DNA level without ligand (log10)” value in data set [1] was 1.62 ± 0.045. In data set [2], the “normalized RNA/DNA level with ligand (log10)” value was 1.78 ± 0.11.
The matching figures for GCUGUCACCGAGAAACUGUGAAGUAUAUCUUAAACCUGGGCACUUAAAAGAUAUAUGGAGUUAGUAGUGCAACCUGCUCGGUCUGAUGAGUCCACAGUGGGACGAAACAGC [ACAGUG]: 1.51 ± 0.11 and 1.68 ± 0.067.
The matching figures for GCUGUCACCGAGAAACUGUGAAGUAUAUCUUAAACCUGGGCACUUAAAAGAUAUAUGGAGUUAGUAGUGCAACCUGCUCGGUCUGAUGAGUCCACAUCCGGACGAAACAGC [ACAUCC]: 1.68 ± 0.047 and 1.83 ± 0.14.
For GCUGUCACCGAGAAACUGUGAAGUAUAUCUUAAACCUGGGCACUUAAAAGAUAUAUGGAGUUAGUAGUGCAACCUGCUCGGUCUGAUGAGUCCACAUCAGGACGAAACAGC [ACAUCA], in that order: 1.683 ± 0.013 and 1.79 ± 0.063.
As to GCUGUCACCGAGAAACUGUGAAGUAUAUCUUAAACCUGGGCACUUAAAAGAUAUAUGGAGUUAGUAGUGCAACCUGCUCGGUCUGAUGAGUCCCCAUAUGGACGAAACAGC [CCAUAU], the “normalized RNA/DNA level without ligand (log10)” value in data set [1] came to 1.55 ± 0.041. Besides, the “normalized RNA/DNA level with ligand (log10)” value in data set [2] worked out at 1.73 ± 0.071.
For GCUGUCACCGAGAAACUGUGAAGUAUAUCUUAAACCUGGGCACUUAAAAGAUAUAUGGAGUUAGUAGUGCAACCUGCUCGGUCUGAUGAGUCCCCAUAGGGACGAAACAGC [CCAUAG], in that order: 1.4 ± 0.17 and 1.66 ± 0.043.
Take GCUGUCACCGAGAAACUGUGAAGUAUAUCUUAAACCUGGGCACUUAAAAGAUAUAUGGAGUUAGUAGUGCAACCUGCUCGGUCUGAUGAGUCCCCAUACGGACGAAACAGC [CCAUAC]: the “normalized RNA/DNA level without ligand (log10)” value in data set [1] amounted to 1.632 ± 0.0016. In data set [2], the “normalized RNA/DNA level with ligand (log10)” value worked out at 1.78 ± 0.075.
The matching figures for GCUGUCACCGAGAAACUGUGAAGUAUAUCUUAAACCUGGGCACUUAAAAGAUAUAUGGAGUUAGUAGUGCAACCUGCUCGGUCUGAUGAGUCCUCAGUUGGACGAAACAGC [UCAGUU]: 1.52 ± 0.16 and 1.74 ± 0.13.
Turning to GCUGUCACCGAGAAACUGUGAAGUAUAUCUUAAACCUGGGCACUUAAAAGAUAUAUGGAGUUAGUAGUGCAACCUGCUCGGUCUGAUGAGUCCGCAUAAGGACGAAACAGC [GCAUAA], the “normalized RNA/DNA level without ligand (log10)” value in data set [1] came out at 1.41 ± 0.19. In data set [2], the “normalized RNA/DNA level with ligand (log10)” value worked out at 1.61 ± 0.064.
The matching figures for GCUGUCACCGAGAAACUGUGAAGUAUAUCUUAAACCUGGGCACUUAAAAGAUAUAUGGAGUUAGUAGUGCAACCUGCUCGGUCUGAUGAGUCCGCAUAUGGACGAAACAGC [GCAUAU]: 1.528 ± 0.014 and 1.72 ± 0.06.
The matching figures for GCUGUCACCGAGAAACUGUGAAGUAUAUCUUAAACCUGGGCACUUAAAAGAUAUAUGGAGUUAGUAGUGCAACCUGCUCGGUCUGAUGAGUCCCCAGUGGGACGAAACAGC [CCAGUG]: 1.27 ± 0.14 and 1.48 ± 0.06.
For GCUGUCACCGAGAAACUGUGAAGUAUAUCUUAAACCUGGGCACUUAAAAGAUAUAUGGAGUUAGUAGUGCAACCUGCUCGGUCUGAUGAGUCCACAUAUGGACGAAACAGC [ACAUAU], in that order: 1.45 ± 0.097 and 1.64 ± 0.14.
On to GCUGUCACCGAGAAACUGUGAAGUAUAUCUUAAACCUGGGCACUUAAAAGAUAUAUGGAGUUAGUAGUGCAACCUGCUCGGUCUGAUGAGUCCUCAUACGGACGAAACAGC [UCAUAC], for which, in data set [1], the “normalized RNA/DNA level without ligand (log10)” value was found to be 1.674 ± 0.011. The “normalized RNA/DNA level with ligand (log10)” value in data set [2] stood at 1.81 ± 0.11.
For GCUGUCACCGAGAAACUGUGAAGUAUAUCUUAAACCUGGGCACUUAAAAGAUAUAUGGAGUUAGUAGUGCAACCUGCUCGGUCUGAUGAGUCCUCAUAAGGACGAAACAGC [UCAUAA], in that order: 1.47 ± 0.065 and 1.67 ± 0.087.
The matching figures for GCUGUCACCGAGAAACUGUGAAGUAUAUCUUAAACCUGGGCACUUAAAAGAUAUAUGGAGUUAGUAGUGCAACCUGCUCGGUCUGAUGAGUCCUCAUAGGGACGAAACAGC [UCAUAG]: 1.65 ± 0.02 and 1.77 ± 0.17.
The matching figures for GCUGUCACCGAGAAACUGUGAAGUAUAUCUUAAACCUGGGCACUUAAAAGAUAUAUGGAGUUAGUAGUGCAACCUGCUCGGUCUGAUGAGUCCUCAUAUGGACGAAACAGC [UCAUAU]: 1.54 ± 0.037 and 1.72 ± 0.13.
For the variant GCUGUCACCGAGAAACUGUGAAGUAUAUCUUAAACCUGGGCACUUAAAAGAUAUAUGGAGUUAGUAGUGCAACCUGCUCGGUCUGAUGAGUCCGCAUCCGGACGAAACAGC [GCAUCC], in data set [1], the “normalized RNA/DNA level without ligand (log10)” value was 1.65 ± 0.077. The “normalized RNA/DNA level with ligand (log10)” value in data set [2] came to 1.82 ± 0.052.
The matching figures for GCUGUCACCGAGAAACUGUGAAGUAUAUCUUAAACCUGGGCACUUAAAAGAUAUAUGGAGUUAGUAGUGCAACCUGCUCGGUCUGAUGAGUCCGCAUCAGGACGAAACAGC [GCAUCA]: 1.61 ± 0.11 and 1.77 ± 0.12.
The matching figures for GCUGUCACCGAGAAACUGUGAAGUAUAUCUUAAACCUGGGCACUUAAAAGAUAUAUGGAGUUAGUAGUGCAACCUGCUCGGUCUGAUGAGUCCUCAUCCGGACGAAACAGC [UCAUCC]: 1.78 ± 0.027 and 1.9 ± 0.082.
